In article PMC4703387, “Identification of the Calmodulin-Binding Domains of Fas Death Receptor” (PLoS ONE, 2016):
Like-named read-outs stand apart in the source and are kept apart here.

Legend:
[1] = biological target: calmodulin (Homo sapiens) (UniProt P0DP23); settings: cited from earlier work
[2] = biological target: calmodulin (Homo sapiens) (UniProt P0DP23); settings: cited from earlier work; remark: listed apart in the source
[3] = biological target: calmodulin, calcium-bound (Ca2+/CaM) (UniProt P0DP23); assay: SEC; Superdex 75 (10/300 GL), 50 mM Tris pH 7.0, 100 mM NaCl, 5 mM CaCl2; samples ~50-150 uM; fractions by SDS-PAGE; calibration with a low molecular weight kit
[4] = biological target: Fas-Pep2 (FasDD residues 251-288); assay: ITC; Ca2+/CaM at 195 uM titrated into Fas-Pep2 at 17 uM, 35°C, 50 mM HEPES pH 7.0, 100 mM NaCl, 5 mM CaCl2; single set of identical sites
[5] = biological target: Fas-Pep1 (FasDD residues 209-239); assay: ITC; Ca2+/CaM at 450 uM titrated into Fas-Pep1 at 25 uM, 25°C, 50 mM HEPES pH 7.0, 100 mM NaCl, 5 mM CaCl2; single set of identical sites

Fas death domain death domain (from UniProt P25445)
Kd [1]: 2000 nM

Fas death domain peptide 214-238 (from UniProt P25445)
Kd [2]: 19500 nM

Fas-Pep1 (FasDD residues 209-239) (peptide)
stoichiometry N [3]: 1

Fas-Pep2 (FasDD residues 251-288) (peptide)
stoichiometry N [3]: 1

calmodulin, calcium-bound (Ca2+/CaM) (from UniProt P0DP23 1-149) (natural protein)
Kd [4]: 1100 nM
dH [4]: -14.2 kcal/mol
stoichiometry N [4]: 0.9
Kd [5]: 300 nM
dH [5]: 2.15 kcal/mol
stoichiometry N [5]: 0.95
